This experiment concerns the target SARS-CoV-2 Spike protein S1 (SARS-CoV-2) (UniProt P0DTC2). The experiment is described as follows: BLI. In general terms: BLI is a label-free optical method that tracks binding on a fibre tip over time.

In the case of “peptide … (sequence 24-42 of the ACE2 α1 domain)”, the IC50 – broadly, the concentration that gives 50% inhibition – came out at 700 nM and the peptide concentration of half effect on koff of the S1-ACE2 complex came out at 0.6 µM.

For the origin of these results see article doi:10.1101/2020.12.29.424682.
